Test results as given in publication PMC12312386, “Multiple transactivation domains of EZH2 bind to the TAZ2 domain of p300 and stimulate the acetyltransferase function of p300” (Biochemical Journal, 2025).
Several values for one entry are separate records, joined by “and”; a condition that tells them apart may be missing. Identical values can stand only once.

B1: p300 TAZ2 domain, untagged (p300_(TAZ2)) (domain or fragment, human, UniProt Q09472 1722-1812, looked up)
chain: AWTQSPGDSRRLSIQRCIQSLVHACQCRNANCSLPSCQKMKRVVQHTKGCKRKTNGGCPICKQLIALCCYHAKHCQENKCPVPFCLNIKQK
notes: TAZ2 domain of human p300, aa 1722-1812, with a tryptophan substituted at A1723; Uniformly 15N-labeled for NMR, unlabeled in mass photometry; they are printed there only as p300_(TAZ2); also called 15N-labeled p300_(TAZ2); source: E. coli Rosetta-2 (DE3) pLysS, purified (glutathione agarose, TEV cleavage, cation exchange or heparin)

Columns and labels:
Details in all cases: both partners purified
[1] = biological target: B1; experiment: NMR titration; 1H,15N HSQC of 50–100 μM 15N-labeled p300_(TAZ2), unlabeled peptide titrated; 298 K; 50 mM MES pH 6.5, 150 mM NaCl, 5 mM DTT
[2] = biological target: T1, GST-EZH2_(TAD1) (aa 142-160 of EZH2) (human, UniProt Q15910 142-160); experiment: mass photometry; 20 nM GST-EZH2_(TAD1) with p300_(TAZ2) (0.1 μM); room temperature; 50 mM Tris pH 7.5, 150 mM NaCl, 5 mM DTT
T1 construct: EZH2, human, aa 142-160, made by deletion from the aa 142-231 construct in pGEX-6P-1; Dimeric in mass photometry (~70 kDa); Limits differ from the synthetic EZH2_(TAD1) peptide (142-154); source: E. coli Rosetta-2 (DE3) pLysS, purified (glutathione agarose, Ni-NTA)
T1 chain (looked up): DGTFIEELIKNYDGKVHGD

GST-p300_(TAZ2) = biological target: T2, GST-p300_(TAZ2) (human, UniProt Q09472 1722-1812, tryptophan substituted at A1723); experiment: mass photometry; 20 nM GST-p300_(TAZ2) with EZH2_(TAD1-TAD2) (5 μM) or EZH2_(TAD1-TAD2-TAD3) (1 μM); room temperature; 50 mM Tris pH 7.5, 150 mM NaCl, 5 mM DTT
T2 construct: TAZ2 domain of human p300, aa 1722-1812, with a tryptophan substituted at A1723; pGEX-4T-1 vector with an additional TEV cleavage site; Dimeric in mass photometry (~80 kDa); also called GST-fusion of p300 TAZ2; source: E. coli Rosetta-2 (DE3) pLysS, purified (glutathione agarose, cation exchange or heparin)
T2 sequence (looked up): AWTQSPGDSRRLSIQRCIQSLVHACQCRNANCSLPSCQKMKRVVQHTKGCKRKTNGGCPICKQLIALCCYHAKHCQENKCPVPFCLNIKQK

Row | binding result [1] | other results | Binder
1 | binds |  | NDEIFVELVNALGQYNDDD (peptide, UniProt Q15910 167-185, looked up, source: synthetic peptide (SynPeptide Co. Ltd.)) [EZH2_(TAD2) peptide (aa 167-185 of EZH2)]
2 |  | stoichiometry N [2]: 1 p300_(TAZ2) per GST-EZH2_(TAD1) dimer and 2 p300_(TAZ2) per GST-EZH2_(TAD1) dimer | B1
3 | binds |  | DGTFIEELIKNYD (peptide, UniProt Q15910 142-154, looked up, source: synthetic peptide (SynPeptide Co. Ltd.)) [EZH2_(TAD1) peptide (aa 142-154 of EZH2)]
4 |  | stoichiometry N (GST-p300_(TAZ2)): 6 GST-p300_(TAZ2) per EZH2_(TAD1-TAD2-TAD3) | EZH2_(TAD1-TAD2-TAD3) (aa 142-231 of EZH2) with C-terminal 6xHis tag (domain or fragment, EZH2, human, aa 142-231, holds TAD1, TAD2 and TAD3; pGEX-6P-1 vector; also called triple EZH2_(TAD1-TAD2-TAD3); source: E. coli Rosetta-2 (DE3) pLysS, purified (glutathione agarose, PreScission cleavage, Ni-NTA)) not shown
5 | binds |  | SDKIFEAISSMF (peptide, UniProt Q15910 220-231, looked up, source: synthetic peptide (SynPeptide Co. Ltd.)) [EZH2_(TAD3) peptide (aa 220-231 of EZH2)]
